These binders were tested against plasma purified human complement protein C3 (human) (UniProt P01024) (assay: cell-based or functional assay).
plasma purified human complement protein C3 (human), sequence (P01024 23-667, chain 1 of 2): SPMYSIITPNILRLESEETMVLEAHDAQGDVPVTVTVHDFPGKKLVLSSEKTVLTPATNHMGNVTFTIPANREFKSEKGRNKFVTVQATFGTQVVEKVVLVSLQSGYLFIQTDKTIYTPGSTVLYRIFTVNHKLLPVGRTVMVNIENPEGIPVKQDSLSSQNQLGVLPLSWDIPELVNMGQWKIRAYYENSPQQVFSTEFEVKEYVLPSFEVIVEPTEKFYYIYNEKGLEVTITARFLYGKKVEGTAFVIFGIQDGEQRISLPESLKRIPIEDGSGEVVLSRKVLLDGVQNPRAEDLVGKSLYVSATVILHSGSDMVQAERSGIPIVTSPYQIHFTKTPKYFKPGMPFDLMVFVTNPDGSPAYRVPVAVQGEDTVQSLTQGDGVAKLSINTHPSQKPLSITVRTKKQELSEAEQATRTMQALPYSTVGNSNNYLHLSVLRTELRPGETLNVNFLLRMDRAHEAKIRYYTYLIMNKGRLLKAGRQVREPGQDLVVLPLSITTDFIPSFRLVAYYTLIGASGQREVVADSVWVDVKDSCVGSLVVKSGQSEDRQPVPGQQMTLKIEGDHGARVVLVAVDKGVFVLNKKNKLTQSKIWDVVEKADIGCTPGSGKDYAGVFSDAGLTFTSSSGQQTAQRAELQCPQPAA
plasma purified human complement protein C3 (human), sequence (P01024 672-1663, chain 2 of 2): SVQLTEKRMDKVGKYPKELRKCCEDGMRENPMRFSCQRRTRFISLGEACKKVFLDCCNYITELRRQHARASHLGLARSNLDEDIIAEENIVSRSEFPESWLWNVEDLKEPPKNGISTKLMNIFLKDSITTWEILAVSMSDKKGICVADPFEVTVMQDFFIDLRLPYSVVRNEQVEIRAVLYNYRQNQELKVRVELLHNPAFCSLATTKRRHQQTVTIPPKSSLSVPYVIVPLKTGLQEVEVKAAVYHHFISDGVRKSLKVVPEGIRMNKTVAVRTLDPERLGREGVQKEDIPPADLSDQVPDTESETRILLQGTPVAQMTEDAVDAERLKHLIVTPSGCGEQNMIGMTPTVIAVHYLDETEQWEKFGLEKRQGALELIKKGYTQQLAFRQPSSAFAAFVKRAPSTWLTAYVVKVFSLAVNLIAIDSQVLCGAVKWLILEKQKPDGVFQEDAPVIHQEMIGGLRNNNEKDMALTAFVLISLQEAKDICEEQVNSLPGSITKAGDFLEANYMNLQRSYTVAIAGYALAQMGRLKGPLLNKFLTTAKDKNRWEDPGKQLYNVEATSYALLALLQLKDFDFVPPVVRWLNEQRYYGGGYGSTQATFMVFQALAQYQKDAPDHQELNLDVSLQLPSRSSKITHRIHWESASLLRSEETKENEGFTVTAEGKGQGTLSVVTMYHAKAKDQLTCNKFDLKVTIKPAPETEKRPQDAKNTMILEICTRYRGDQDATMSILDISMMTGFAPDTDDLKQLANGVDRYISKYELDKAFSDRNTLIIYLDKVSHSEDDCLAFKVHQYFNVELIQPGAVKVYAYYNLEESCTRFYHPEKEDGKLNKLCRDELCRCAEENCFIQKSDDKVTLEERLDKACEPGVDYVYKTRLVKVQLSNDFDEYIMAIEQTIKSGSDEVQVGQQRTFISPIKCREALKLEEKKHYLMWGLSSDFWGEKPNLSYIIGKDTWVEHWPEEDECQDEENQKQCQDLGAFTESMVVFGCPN

Binder | EC50 of hC3 cleavage [nM]
MTSP-1 Q38K/I41T/D60bY/ins97aV/F97D/T98P/F99L/C122S/I136T/Q192G/F208V/D217R (enzyme) VVGGTDADEGEWPWQVSLHALGKGHTCGASLISPNWLVSAAHCYIDYRGFRYSDPTQWTAFLGLHDQSQRSAPGVQERRLKRIISHPFFNDDVPLDYDIALLELEKPAEYSSMVRPISLPDASHVFPAGKATWVTGWGHTQYGGTGALILQKGEIRVINQTTCENLLPQQITPRMMCVGFLSGGVDSCGGDSGGPLSSVEADGRIVQAGVVSWGRGCAQRNKPGVYTRLPLFRDWIKENTGV | 19.5
MTSP-1 Q38H/I41S/D60bT/F60eS/Y60gW/ins97aV/F97D/T98P/F99L/C122S/G151N/Q175L/Q192E (enzyme) VVGGTDADEGEWPWQVSLHALGHGHSCGASLISPNWLVSAAHCYIDTRGSRWSDPTQWTAFLGLHDQSQRSAPGVQERRLKRIISHPFFNDDVPLDYDIALLELEKPAEYSSMVRPISLPDASHVFPAGKAIWVTGWGHTQYGGTNALILQKGEIRVINQTTCENLLPQLITPRMMCVGFLSGGVDSCEGDSGGPLSSVEADGRIFQAGVVSWGDGCAQRNKPGVYTRLPLFRDWIKENTGV | 6.78
MTSP-1 Q38H/I41A/D60bE/F60eH/Y60gW/ins97aE/F97T/T98G/F99L/C122S/G151H/Q175L/Q192D (enzyme) VVGGTDADEGEWPWQVSLHALGHGHACGASLISPNWLVSAAHCYIDERGHRWSDPTQWTAFLGLHDQSQRSAPGVQERRLKRIISHPFFNDTEGLDYDIALLELEKPAEYSSMVRPISLPDASHVFPAGKAIWVTGWGHTQYGGTHALILQKGEIRVINQTTCENLLPQLITPRMMCVGFLSGGVDSCDGDSGGPLSSVEADGRIFQAGVVSWGDGCAQRNKPGVYTRLPLFRDWIKENTGV | 13.8
MTSP-1 Q38H/I41S/P49Q/D60bS/F93L/ins97aV/F97D/T98P/F99L/C122S/Q192G/D217Q (enzyme) VVGGTDADEGEWPWQVSLHALGHGHSCGASLISQNWLVSAAHCYIDSRGFRYSDPTQWTAFLGLHDQSQRSAPGVQERRLKRIISHPLFNDDVPLDYDIALLELEKPAEYSSMVRPISLPDASHVFPAGKAIWVTGWGHTQYGGTGALILQKGEIRVINQTTCENLLPQQITPRMMCVGFLSGGVDSCGGDSGGPLSSVEADGRIFQAGVVSWGQGCAQRNKPGVYTRLPLFRDWIKENTGV | 48.3
MTSP-1 Q38E/I41A/D60bH/ins97aV/F97D/T98P/F99L/C122S/Q192G/Q209L/D217H (enzyme) VVGGTDADEGEWPWQVSLHALGEGHACGASLISPNWLVSAAHCYIDHRGFRYSDPTQWTAFLGLHDQSQRSAPGVQERRLKRIISHPFFNDDVPLDYDIALLELEKPAEYSSMVRPISLPDASHVFPAGKAIWVTGWGHTQYGGTGALILQKGEIRVINQTTCENLLPQQITPRMMCVGFLSGGVDSCGGDSGGPLSSVEADGRIFLAGVVSWGHGCAQRNKPGVYTRLPLFRDWIKENTGV | 10.2
MTSP-1 Q38E/I41S/D60bV/F60eK/Y60gW/ins97aE/F97T/T98G/F99L/C122S/G151H/Q175L/Q192D (enzyme) VVGGTDADEGEWPWQVSLHALGEGHSCGASLISPNWLVSAAHCYIDVRGKRWSDPTQWTAFLGLHDQSQRSAPGVQERRLKRIISHPFFNDTEGLDYDIALLELEKPAEYSSMVRPISLPDASHVFPAGKAIWVTGWGHTQYGGTHALILQKGEIRVINQTTCENLLPQLITPRMMCVGFLSGGVDSCDGDSGGPLSSVEADGRIFQAGVVSWGDGCAQRNKPGVYTRLPLFRDWIKENTGV | 22.9
MTSP-1 Q38H/I41S/D60bG/ins97aV/F97D/T98P/F99L/M117T/C122S/N164D/Q192G/D217E (enzyme) VVGGTDADEGEWPWQVSLHALGHGHSCGASLISPNWLVSAAHCYIDGRGFRYSDPTQWTAFLGLHDQSQRSAPGVQERRLKRIISHPFFNDDVPLDYDIALLELEKPAEYSSTVRPISLPDASHVFPAGKAIWVTGWGHTQYGGTGALILQKGEIRVIDQTTCENLLPQQITPRMMCVGFLSGGVDSCGGDSGGPLSSVEADGRIFQAGVVSWGEGCAQRNKPGVYTRLPLFRDWIKENTGV | 10.3
MTSP-1 Q38K/I41S/D60bV/ins97aV/F97D/T98P/F99L/M117T/C122S/Q145E/Q175L/Q192G (enzyme) VVGGTDADEGEWPWQVSLHALGKGHSCGASLISPNWLVSAAHCYIDVRGFRYSDPTQWTAFLGLHDQSQRSAPGVQERRLKRIISHPFFNDDVPLDYDIALLELEKPAEYSSTVRPISLPDASHVFPAGKAIWVTGWGHTEYGGTGALILQKGEIRVINQTTCENLLPQLITPRMMCVGFLSGGVDSCGGDSGGPLSSVEADGRIFQAGVVSWGDGCAQRNKPGVYTRLPLFRDWIKENTGV | 11.8
MTSP-1 Q38H/I41A/D60bV/F60eI/Y60gW/ins97aE/F97T/T98G/F99L/C122S/G151H/Q175L/Q192D (enzyme) VVGGTDADEGEWPWQVSLHALGHGHACGASLISPNWLVSAAHCYIDVRGIRWSDPTQWTAFLGLHDQSQRSAPGVQERRLKRIISHPFFNDTEGLDYDIALLELEKPAEYSSMVRPISLPDASHVFPAGKAIWVTGWGHTQYGGTHALILQKGEIRVINQTTCENLLPQLITPRMMCVGFLSGGVDSCDGDSGGPLSSVEADGRIFQAGVVSWGDGCAQRNKPGVYTRLPLFRDWIKENTGV | 6.42
MTSP-1 Q38H/I41A/D60bW/ins97aV/F97D/T98P/F99L/C122S/I136M/Q192G/D217N (enzyme) VVGGTDADEGEWPWQVSLHALGHGHACGASLISPNWLVSAAHCYIDWRGFRYSDPTQWTAFLGLHDQSQRSAPGVQERRLKRIISHPFFNDDVPLDYDIALLELEKPAEYSSMVRPISLPDASHVFPAGKAMWVTGWGHTQYGGTGALILQKGEIRVINQTTCENLLPQQITPRMMCVGFLSGGVDSCGGDSGGPLSSVEADGRIFQAGVVSWGNGCAQRNKPGVYTRLPLFRDWIKENTGV | 3.06
MTSP-1 Q38H/I41S/D60bT/F93L/ins97aV/F97D/T98P/F99L/S115N/C122S/Q192V/F208L/D217Q (enzyme) VVGGTDADEGEWPWQVSLHALGHGHSCGASLISPNWLVSAAHCYIDTRGFRYSDPTQWTAFLGLHDQSQRSAPGVQERRLKRIISHPLFNDDVPLDYDIALLELEKPAEYNSMVRPISLPDASHVFPAGKAIWVTGWGHTQYGGTGALILQKGEIRVINQTTCENLLPQQITPRMMCVGFLSGGVDSCVGDSGGPLSSVEADGRILQAGVVSWGQGCAQRNKPGVYTRLPLFRDWIKENTGV | 45.8
MTSP-1 I41T/D60bH/ins97aV/F97D/T98P/F99L/C122S/Q192G/D217I (enzyme) VVGGTDADEGEWPWQVSLHALGQGHTCGASLISPNWLVSAAHCYIDHRGFRYSDPTQWTAFLGLHDQSQRSAPGVQERRLKRIISHPFFNDDVPLDYDIALLELEKPAEYSSMVRPISLPDASHVFPAGKAIWVTGWGHTQYGGTGALILQKGEIRVINQTTCENLLPQQITPRMMCVGFLSGGVDSCGGDSGGPLSSVEADGRIFQAGVVSWGIGCAQRNKPGVYTRLPLFRDWIKENTGV | 4.52
MTSP-1 Q38H/I41S/D60bS/F93L/D96Y/ins97aV/F97D/T98P/F99L/C122S/I136F/Q192G/D217V (enzyme) VVGGTDADEGEWPWQVSLHALGHGHSCGASLISPNWLVSAAHCYIDSRGFRYSDPTQWTAFLGLHDQSQRSAPGVQERRLKRIISHPLFNYDVPLDYDIALLELEKPAEYSSMVRPISLPDASHVFPAGKAFWVTGWGHTQYGGTGALILQKGEIRVINQTTCENLLPQQITPRMMCVGFLSGGVDSCGGDSGGPLSSVEADGRIFQAGVVSWGVGCAQRNKPGVYTRLPLFRDWIKENTGV | 9.56
MTSP-1 Q38R/I41T/D60bT/ins97aV/F97D/T98P/F99L/C122S/I136V/Q192G/D217N/L233Q (enzyme) VVGGTDADEGEWPWQVSLHALGRGHTCGASLISPNWLVSAAHCYIDTRGFRYSDPTQWTAFLGLHDQSQRSAPGVQERRLKRIISHPFFNDDVPLDYDIALLELEKPAEYSSMVRPISLPDASHVFPAGKAVWVTGWGHTQYGGTGALILQKGEIRVINQTTCENLLPQQITPRMMCVGFLSGGVDSCGGDSGGPLSSVEADGRIFQAGVVSWGNGCAQRNKPGVYTRLPQFRDWIKENTGV | 39.8
MTSP-1 Q38H/I41S/D60bT/ins97aV/F97D/T98P/F99L/C122S/I136V/Q192G/D217S (enzyme) VVGGTDADEGEWPWQVSLHALGHGHSCGASLISPNWLVSAAHCYIDTRGFRYSDPTQWTAFLGLHDQSQRSAPGVQERRLKRIISHPFFNDDVPLDYDIALLELEKPAEYSSMVRPISLPDASHVFPAGKAVWVTGWGHTQYGGTGALILQKGEIRVINQTTCENLLPQQITPRMMCVGFLSGGVDSCGGDSGGPLSSVEADGRIFQAGVVSWGSGCAQRNKPGVYTRLPLFRDWIKENTGV | 22.2
MTSP-1 Q38H/I41S/D60bS/ins97aV/F97D/T98P/F99L/C122S/I136V/Q192G/D217V (enzyme) VVGGTDADEGEWPWQVSLHALGHGHSCGASLISPNWLVSAAHCYIDSRGFRYSDPTQWTAFLGLHDQSQRSAPGVQERRLKRIISHPFFNDDVPLDYDIALLELEKPAEYSSMVRPISLPDASHVFPAGKAVWVTGWGHTQYGGTGALILQKGEIRVINQTTCENLLPQQITPRMMCVGFLSGGVDSCGGDSGGPLSSVEADGRIFQAGVVSWGVGCAQRNKPGVYTRLPLFRDWIKENTGV | 7.05
MTSP-1 Q38H/I41S/L52M/D60bG/ins97aV/F97D/T98P/F99L/M117K/C122S/I136L/Q192G/D217A (enzyme) VVGGTDADEGEWPWQVSLHALGHGHSCGASLISPNWMVSAAHCYIDGRGFRYSDPTQWTAFLGLHDQSQRSAPGVQERRLKRIISHPFFNDDVPLDYDIALLELEKPAEYSSKVRPISLPDASHVFPAGKALWVTGWGHTQYGGTGALILQKGEIRVINQTTCENLLPQQITPRMMCVGFLSGGVDSCGGDSGGPLSSVEADGRIFQAGVVSWGAGCAQRNKPGVYTRLPLFRDWIKENTGV | 22
MTSP-1 Q38H/I41T/D60bH/ins97aV/F97D/T98P/F99L/C122S/I136F/L153P/Q192G/D217Y (enzyme) VVGGTDADEGEWPWQVSLHALGHGHTCGASLISPNWLVSAAHCYIDHRGFRYSDPTQWTAFLGLHDQSQRSAPGVQERRLKRIISHPFFNDDVPLDYDIALLELEKPAEYSSMVRPISLPDASHVFPAGKAFWVTGWGHTQYGGTGAPILQKGEIRVINQTTCENLLPQQITPRMMCVGFLSGGVDSCGGDSGGPLSSVEADGRIFQAGVVSWGYGCAQRNKPGVYTRLPLFRDWIKENTGV | 25.5
MTSP-1 Q38H/I41A/D60bT/F60eK/Y60gW/ins97aE/F97T/T98G/F99L/C122S/G151H/Q175L/Q192D (enzyme) VVGGTDADEGEWPWQVSLHALGHGHACGASLISPNWLVSAAHCYIDTRGKRWSDPTQWTAFLGLHDQSQRSAPGVQERRLKRIISHPFFNDTEGLDYDIALLELEKPAEYSSMVRPISLPDASHVFPAGKAIWVTGWGHTQYGGTHALILQKGEIRVINQTTCENLLPQLITPRMMCVGFLSGGVDSCDGDSGGPLSSVEADGRIFQAGVVSWGDGCAQRNKPGVYTRLPLFRDWIKENTGV | 10.6
MTSP-1 I41S/D60bT/F93L/ins97aV/F97D/T98P/F99L/C122S/Q192G/D217H (enzyme) VVGGTDADEGEWPWQVSLHALGQGHSCGASLISPNWLVSAAHCYIDTRGFRYSDPTQWTAFLGLHDQSQRSAPGVQERRLKRIISHPLFNDDVPLDYDIALLELEKPAEYSSMVRPISLPDASHVFPAGKAIWVTGWGHTQYGGTGALILQKGEIRVINQTTCENLLPQQITPRMMCVGFLSGGVDSCGGDSGGPLSSVEADGRIFQAGVVSWGHGCAQRNKPGVYTRLPLFRDWIKENTGV | 27.7
MTSP-1 Q38H/I41S/D60bS/ins97aV/F97D/T98P/F99L/M117L/C122S/I136T/Q192G/D217I (enzyme) VVGGTDADEGEWPWQVSLHALGHGHSCGASLISPNWLVSAAHCYIDSRGFRYSDPTQWTAFLGLHDQSQRSAPGVQERRLKRIISHPFFNDDVPLDYDIALLELEKPAEYSSLVRPISLPDASHVFPAGKATWVTGWGHTQYGGTGALILQKGEIRVINQTTCENLLPQQITPRMMCVGFLSGGVDSCGGDSGGPLSSVEADGRIFQAGVVSWGIGCAQRNKPGVYTRLPLFRDWIKENTGV | 2.43
